{
  "source": "patent EP1147413B1",
  "molecular_target": "mouse GDF-8 pro-domain without tag, lacking the signal peptide, released from WT-GDF-8-F in QM-7 cells (mouse) (UniProt O08689)",
  "sequence (O08689 20-267 limits assumed)": "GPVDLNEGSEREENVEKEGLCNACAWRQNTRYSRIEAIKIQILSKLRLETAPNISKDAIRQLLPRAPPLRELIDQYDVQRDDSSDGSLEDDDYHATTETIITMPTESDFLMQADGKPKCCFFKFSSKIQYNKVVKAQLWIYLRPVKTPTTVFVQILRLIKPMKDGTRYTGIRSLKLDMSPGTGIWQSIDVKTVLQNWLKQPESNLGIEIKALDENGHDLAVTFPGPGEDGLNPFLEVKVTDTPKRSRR",
  "assay": "cell-based or functional assay",
  "data": [
    {"substance": "m-calpain (enzyme)", "values": [
      {"measurement": "luciferase activity of affinity-purified GDF-8 complexes after 1U/ml m-calpain for 2 hours at 37° C, against the untreated control", "value": 2.5, "unit": "fold"}
    ]}
  ]
}
